Data set [1] concerns the target T1, PTBP1 (GST-SBP-PTBP1) (UniProt P26599-1 1-531). The experiment in a line: bead pull-down with RT-qPCR. (In general: In qPCR the cycle at which signal appears reflects the starting amount.)
The target in data set [2] is T1, PTBP1 (GST-SBP-PTBP1). The data set is described as follows: fluorescence polarization. On the technique in general: Fluorescence polarisation rises when a labelled molecule tumbles more slowly, as on binding a larger partner.

As a reminder, the Kd is the equilibrium constant for the complex coming apart. Low values mean tighter binding, high ones weaker binding.

B1: Capzb intron WT transcript with adapters (ssRNA)
RNA: AGUUGUACAGUCCGACGAUGCGGUGGCCUUCUCCUGUCUCUGCCUUUGCCCACGGCUGCCAGGUUCUUGUUCGGCAUUGCUGUUGCUCUCUUGCUGUGGCUUCACCCUCUCUGAACACUCUCUGUAGUGCAGUCGUCGAGUGUCAACG
On to B1, for which, in the data set with PTBP1 (GST-SBP-PTBP1) [1], the binding result is “binds”.
On to CUCUCUCUCUCUCUCUC (ssRNA) [Fnbp1 intron oligo], for which the Kd with PTBP1 (GST-SBP-PTBP1) [2] was ~2 nM.
Still for that read-out and setting: the figure for CUCUCUGAACACUCUCU (ssRNA) [Capzb intron oligo] is ~3 nM; for CUUUCUCUCAAGCU (ssRNA) [Fnbp1 exon oligo] it is ~8 nM; for AUCUCUUGAUGCUAUCC (ssRNA) [Capzb exon oligo] it is ~6 nM.

For the origin of these results see article PMC8925968.
